PMC7016264, “Redox requirements for ubiquitin-like urmylation of Ahp1, a 2-Cys peroxiredoxin from yeast” (Redox Biology, 2020)

Target: the molecule itself
Assay: SEC-MALS; proteins reduced with 50 mM DTT, exchanged into 20 mM HEPES pH 7.5, 100 mM NaCl, 1 mM TCEP, diluted to 125 uM; dimer to monomers

B1: His-tagged Ahp1, wild-type (recombinant) (enzyme, S. cerevisiae, UniProt P38013 1-176, looked up)
chain: MSDLVNKKFPAGDYKFQYIAISQSDADSESCKMPQTVEWSKLISENKKVIITGAPAAFSPTCTVSHIPGYINYLDELVKEKEVDQVIVVTVDNPFANQAWAKSLGVKDTTHIKFASDPGCAFTKSIGFELAVGDGVYWSGRWAMVVENGIVTYAAKETNPGTDVTVSSVESVLAHL
notes: Ahp1, 2-Cys peroxiredoxin of Saccharomyces cerevisiae; The printed mass of the His-tagged monomer is ~23.3 kDa (dimer 46.7 kDa) against ~19 kDa for untagged Ahp1, so vector-derived residues are probably present; also called wild-type Ahp1; wt Ahp1; source: E. coli, purified (His-tagged)
stoichiometry N: 2
